The record followed here is publication PMC5902456.

Assay [1] has as its target sfGFP-MAP7 (full-length human MAP7) (human) (UniProt Q14244). The experiment in a line: TIRF microscopy of fluorescent proteins on immobilized microtubules; recruitment and motility: MAP7 (or ensconsin), 5 nM, flowed in first onto immobilized microtubules, then the kinesin-1 construct (1 nM K560); BRB80 pH 6.8 with 1 mM ATP, 150 mM K-acetate; fold change of kinesin fluorescence on the microtubule against no MAP.

For assay [2], the target named is sfGFP-Ensconsin, wild type (Drosophila melanogaster) (Drosophila melanogaster). The description is as above.
Chain of sfGFP-Ensconsin, wild type (Drosophila melanogaster) (Drosophila melanogaster) (main, as listed by the source): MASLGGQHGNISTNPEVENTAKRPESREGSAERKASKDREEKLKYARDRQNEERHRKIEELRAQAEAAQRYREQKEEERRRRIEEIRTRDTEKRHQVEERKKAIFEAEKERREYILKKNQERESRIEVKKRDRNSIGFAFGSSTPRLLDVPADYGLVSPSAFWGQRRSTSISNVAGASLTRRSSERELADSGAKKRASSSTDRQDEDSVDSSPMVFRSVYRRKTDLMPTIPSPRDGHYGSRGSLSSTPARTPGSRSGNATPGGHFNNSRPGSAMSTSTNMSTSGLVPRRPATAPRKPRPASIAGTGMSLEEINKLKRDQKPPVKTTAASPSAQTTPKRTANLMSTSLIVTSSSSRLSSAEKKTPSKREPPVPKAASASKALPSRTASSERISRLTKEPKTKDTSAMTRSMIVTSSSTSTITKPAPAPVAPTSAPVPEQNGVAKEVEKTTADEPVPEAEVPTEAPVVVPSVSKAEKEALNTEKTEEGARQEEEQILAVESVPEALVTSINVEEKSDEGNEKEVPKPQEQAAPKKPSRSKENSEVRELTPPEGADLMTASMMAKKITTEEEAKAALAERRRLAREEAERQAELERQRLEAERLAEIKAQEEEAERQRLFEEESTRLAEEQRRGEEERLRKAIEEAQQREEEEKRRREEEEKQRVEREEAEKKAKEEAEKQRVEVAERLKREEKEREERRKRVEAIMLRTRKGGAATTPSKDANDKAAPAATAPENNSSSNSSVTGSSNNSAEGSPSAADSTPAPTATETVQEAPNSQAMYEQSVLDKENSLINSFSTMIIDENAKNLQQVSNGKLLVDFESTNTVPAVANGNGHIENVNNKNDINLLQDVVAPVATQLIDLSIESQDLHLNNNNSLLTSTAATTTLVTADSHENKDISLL
The target in assay [3] is taxol-stabilized microtubules of native tubulin, biotin-tubulin and fluorescent-tubulin from porcine brain (~10:1:1) (porcine) (UniProt P02550). Described as above.
Assay [4] addresses taxol-stabilized microtubules polymerized from porcine brain tubulin (porcine) (UniProt P02550).
The target in assay [5] is taxol-stabilized microtubules of native tubulin, biotin-tubulin and fluorescent-tubulin from porcine brain (~10:1:1) (porcine) (UniProt P02550). In words: TIRF microscopy of fluorescent proteins on immobilized microtubules; 5 nM KIF1A-mScarlet or 3 nM DDB-TMR on immobilized microtubules, alone or with 5 nM sfGFP-MAP7 or 100 nM mTagBFP-tau; 30 mM Hepes pH 7.4, 150 mM K-acetate, 2 mM Mg-acetate, 1 mM EGTA, 10% glycerol, 1 mM ATP.

Assay [6] has the same target. The experiment in a line: TIRF microscopy of fluorescent proteins on immobilized microtubules; TIRF-M-based microtubule-binding assay; KD derived from saturation curves.
For assay [7] the target is unchanged. In words: single-molecule dwell time by TIRF microscopy; 250 pM sfGFP-MAP7 or 10 nM sfGFP-tau on immobilized microtubules; kymograph analysis; cumulative frequencies fit to a one phase exponential decay; 30 mM Hepes pH 7.4, 150 mM K-acetate buffer.
Assay [8] addresses taxol-stabilized microtubules polymerized from porcine brain tubulin (porcine) (UniProt P02550). In words: co-sedimentation; 500 nM sfGFP-MAP7 or sfGFP-tau with increasing microtubules; 50 mM Tris pH 8, 150 mM K-acetate, 2 mM Mg-acetate, 1 mM EGTA, 10% glycerol, DTT, taxol, BSA; 25 °C, 20 min; pelleted at 90,000 g; SDS-PAGE; apparent KD.
For assay [9] the target is unchanged. The description is as above. The source holds these as a separate data set.

Read-outs that look alike come from different tables or passages of the source.

As for “K508-mScarlet (from UniProt P33176 1-508) (domain or fragment)”, the fold change in fluorescence intensity on the microtubule in the presence of sfGFP-MAP7 in assay [1] came out at 10.9 fold.

For “K523-mScarlet (from UniProt P33176 1-523) (domain or fragment)”, the fold change in fluorescence intensity on the microtubule in the presence of sfGFP-MAP7 in [1] turned out to be 152 fold.

Regarding “K560-mScarlet (truncated human kinesin-1) (from UniProt P33176 1-560) (domain or fragment)”, the fold change in fluorescence intensity on the microtubule in the presence of sfGFP-MAP7 in assay [1] was found to be 165 fold. Besides, in assay [2], the fold change in fluorescence intensity on the microtubule in the presence of ensconsin was 147 fold. In assay [3], the landing rate (motors μm^−1 min^−1) amounted to 0.09 and the landing rate with 5 nM sfGFP-MAP7 (motors μm^−1 min^−1) was found to be 1.34. Moreover, in assay [4], the KmMT of the microtubule-stimulated ATPase of 50 nM K560-mScarlet, with 50 nM sfGFP-MAP7 amounted to 0.27 µM and the KmMT of the microtubule-stimulated ATPase of 50 nM K560-mScarlet, without MAP7 turned out to be 1.46 µM.

In the case of “dynein–dynactin-BicD2 (DDB)-TMR complex (from UniProt Q921C5 1-820)”, in [5], the fluorescence intensity on the microtubule turned out to be 164 A.U and the fluorescence intensity on the microtubule with 5 nM sfGFP-MAP7 was found to be 147 A.U.

Regarding “sfGFP-MAP7 (full-length human MAP7) (from UniProt Q14244 1-749) (natural protein)”, the Kd worked out at 3030 nM in assay [6], 460 nM in [8] and 470 nM in assay [9]. The molecule further registered a dwell time decay constant τ in [7] of 82.3 s.

In [6], “sfGFP-MAP7ΔC (aa 1–353) (from UniProt Q14244 1-353) (domain or fragment)” had a Kd of 1390 nM.

B1: KIF1A-mScarlet (human KIF1A 1–393) (domain or fragment)
chain: MAGASVKVAVRVRPFNSREMSRDSKCIIQMSGSTTTIVNPKQPKETPKSFSFDYSYWSHTSPEDINYASQKQVYRDIGEEMLQHAFEGYNVCIFAYGQTGAGKSYTMMGKQEKDQQGIIPQLCEDLFSRINDTTNDNMSYSVEVSYMEIYCERVRDLLNPKNKGNLRVREHPLLGPYVEDLSKLAVTSYNDIQDLMDSGNKARTVAATNMNETSSRSHAVFNIIFTQKRHDAETNITTEKVSKISLVDLAGSERADSTGAKGTRLKEGANINKSLTTLGKVISALAEMDSGPNKNKKKKKTDFIPYRDSVLTWLLRENLGGNSRTAMVAALSPADINYDETLSTLRYADRAKQIRCNAVINEDPNNKLIRELKDEVTRLRDLLYAQGLGDITD
In [5], B1 yielded a fluorescence intensity on the microtubule of 1000 A.U, a fluorescence intensity on the microtubule with 5 nM sfGFP-MAP7 of 332 A.U, a fluorescence intensity on the microtubule with 100 nM mTagBFP-tau of 427 A.U and a landing rate (motors μm^−1 min^−1) of 1.5. In assay [5], the landing rate with mTagBFP-tau (motors μm^−1 min^−1) amounted to 0.24 and the landing rate with sfGFP-MAP7 (motors μm^−1 min^−1) amounted to 0.38.
